Assay results as given in the DeepSol protein solubility set.

Assay: soluble on expression in E. coli; label from the status in PepcDB or PDB records

Sequence	soluble on expression in E. coli
MGSDKIHHHHHHMNLTGCGEKFYQHCKVILSEFEWATYEISYNQQYPEGELKLNTPMSFSNIFLQHIISDFIEKYPSIKIDLFMTDQLLDVNQHKFDLTIRLDGSAPSLANSKILNTYQRYLYATPEYFNQHGLPTSLEELKEHKFLIYYQDSRHKKLIFQKDQKEVSFNCFPVMTCNNGELLLDMCLKDHGIVFLPEFIAEPYYKEGKLQKCLEDYTSQPLHLYVTWPNRKILSKKVKLFIDFLTHQIIPIK	not soluble
MGSDKIHHHHHHMDRYPPFGFVRAVPIASSGNMTGESISNIATALVVGGGIGGMATAISLAERGVTVDLVDLDPEWRVYGAGITITGPTLRAYRRLGMLDEIKHKGAITSKTRLFRYDGTHMLDLDEPVIEEGLPATGGIMRPVLHHIMQKRVRELEIPVRLGLTVDALENVQGGVDVRFSDRTARRYDLVVGADSVFSRVRDLAFAHMGPAQPTGQGCWRISIRKPPGLDMGEFFLGHANPCGITACGPDTVYMWMLTPHVERDSHMDDEELFVTLKALLADFGGNAGWIRDNMTREDWINYRPLAAALQPRDWFNGRIVLVGDAVHATTPHLASGAGMAVESGIVLAEELARAGDVESALRAYQERRFDRCRDVIETSVAVGRLQLEHGDPQVHAKMLEGALGRLNQPF	not soluble
MGSDKIHHHHHHMTTPRRALIVIDVQNEYVTGDLPIEYPDVQSSLANIARAMDAARAAGVPVVIVQNFAPAGSPLFARGSNGAELHPVVSERARDHYVEKSLPSAFTGTDLAGWLAARQIDTLTVTGYMTHNCDASTINHAVHSGLAVEFLHDATGSVPYENSAGFASAEEIHRVFSVVLQSRFAAVASTDEWIAAVQGGTPLARGNIYASNQKARARRATA	not soluble
MAHHHHHHMKIVPPNFGYVEERIFRCGAPEPCHYAFLASLKLRTCVLLTESHDEAFVRWLRENNVHTVCPLYDGSRMNGLGDKMGCVGYHTGSMTLSEPVVVDILHVLVDPINYPLLLTCSVGRYRTGIVCGCLRKLQGWSLVSILEEYRRYAQDKGRAENEEFIELFDKDLVNLELKDGRRPTILYPYDV	soluble
MSLDDSYRIRHIVVKDEEEAREVLKELKGGSSFEAVAAERSTDRYTSPYGGDLGFVTEASDNIPSAYIEEAKTLKEDEWSQEPIKVSNGYAIIQLKEKLKARTFSFDEVKDQIRRQIAMDQLGDKATVKTLWKEADVSWFYGEKSTKEGHHHHHH	soluble
MGSDKIHHHHHHMLRDLVYPPGCATCGLPVAKAGSLCSDCWCSVRFIERPYCEILGLPFGFDPGQGMVCAEAIANPPVFDRLRAAVVHDGAARDLVHRLKYGDRTDLAPMMAHWMIRAGGQELLRADAILPVPLHRWRLFSRQYNQSAELGRALAGLSDKPFLPGVLTRVKRTQKQVGLTEKARADNVRGAFKVAENRRDQVFGRHLVLVDDVYTTGATVSAATRALKRAGAVEVTVLTFAMALVTPI	not soluble
MSLEAAPAGSGPLRRTFLVPEIKSLDQYDFSRAKAAASLAWVLRAAFGGAEHVPPELWEPFYTDQYAQEHVKPPVTRLLLSAELYCRAWRQALPQLEPSPSPSALLALLARRGTVPSLPEHPVREADLKHQPILMGAHLAVIDALMVAFSFEWTKTLPGPLALSSLEHKLLFWVDTTVRRLQEKTEQEAAQRASPAAPLDGASPAQPSIRYRKDRAIARRAPCFPNVTTLQDLASGAALAATIHCYCPQLLRLEEVCLKDPMSVADSLYNLQLVQDFCASHLPRGCPLSLEDLLYVPPPLKVNLVVLLAEMYMCFEVLKPDFVQAKDLPDGHAVSPRNTETVPSQNNSGSSSSPSRLPGSRERDWENGSNASSPASVPEYTGPRLYKEPSAKSNKFIIHNALSHCCLAGKVNEPQKNRILEEIEKSKANHFLILFRDSSCQFRALYTLSGETEELSRLAGYGPRTVTPAMVEGIYKYNSDRKRFTQIPAKTMSMSVDAFTIQGHLWQSKKPTTPKKGGGTPKEGHHHHHH	soluble
GLKEHDFNPEEAEETKQVSWKLVTEYAMETKCDDVLLLLGMYLEFQYSFEMCLKCIKKEQPSHYKYHEKHYANAAIFADSKNQKTICQQAVDTVLAKKRVDSLQLTREQMLTNRFNDLLDRMDIMFGSTGSADIEEWMAGVAWLHCLLPKMDSVVYDFLKCMVYNIPKKRYWLFKGPIDSGKTTLAAALLELCGGKALNVNLPLDRLNFELGVAIDQFLVVFEDVKGTGGESRDLPSGQGINNLDNLRDYLDGSVKVNLEKKHLNKRTQIFPPGIVTMNEYSVPKTLQARFVKQIDFRPKDYLKHCLERSEFLLEKRIIQSGIALLLMLIWYRPVAEFAQSIQSRIVEWKERLDKEFSLSVYQKMKFNVAMGIGVLD	soluble
FPSKSKMFEALIERIEQTLTSYINASKRKENSTALAVKAILYTVIEFARKNPGVTRILTGHALMFENSELKLRVAKFFDGLELQFVNILQMRKLREGKAFQDERALAGYLVTFCEGQFLRLVRSNFSSNPHQHFEKQWSLIKPLFE	not soluble
MITAEKKKKNKFLPNFDKQSIYSLRFDEMQNWLVEQGQQKFRAKQIFEWLYQKRVDSIDEMTNLSKDLRQLLKDNFTVTTLTTVVKQESKDGTIKFLYELQDGYTIETVLMRHDYGNSVCVTTQVGCRIGCTFCASTLGGLKRNLEAGEIVSQVLTVQKALDATEERVSQIVIMGIGEPFENYDEMMDFLRIVNDDNSLNIGARHITVSTSGIIPRIYDFADEDIQINFAVSLHAAKDEVRSRLMPINRAYNVEKLIEAIQYYQEKTNRRVTFEYGLFGGVNDQLEHARELAHLIKGLNCHVNLIPVNHVPERNYVKTAKNDIFKFEKELKRLGINATIRREQGSDIDAACGQLRAKERQVETRLEHHHHHH	not soluble
MSLKSYRPIELAKMFNLHSNTIRFYESIGYISKASRKPNGYREFTDKHILQLTICRHILGYRYTNRHIRDTGKLIIICSAESKLIEGKQYAQDYIKIIQNEIEIAEKTAQLLHKWAELKRDTDNSDSIEKFYTRNEVACLLGVTSEAVRNWERNDLIKSDKRGYRNAVLFNNIDLDRIRIIYMLRQTGYSMSAIHRCLMVYDKGQTELVVAALNKTDERELLSVGDCWLSELKKLESAAEEIPLIFDKLKESEGHHHHHH	soluble
LHPFFRSFALRASAHPVLSADFESAFAAARHAAPATAAAVQTAERLPEWNLTDLYPAMDSPELKADLDKADVACKAFETAFKGKLAALLALPDGGAALGAAVKSYEEVDDLLGRIASYGSLIYAGDTSDPARAKFYGDIQERLTDASTHLLFFTLEMNRLDDAALEAAMADPALGYYRPWVEDLRKDKPYQLDDKIEQLFHEKSNPSRGAWSRLFDETISSLRFTVDGQDLAIEPTLNLMQDPREEVRKSAGLALADTFGKNLRLFTLITNTLAKDKEISDRWRGFEDVASSRHLANRVEKEVVDAMVEAIRVSFPRLSHRYYALKARWFGKDRLEFWDRNAPLPKVETRDIGWGEAKDTVLSAYGAFSPKMADIAKTFFEKSWIDAPVRPGKSPGAFAHPTVPSAHPYVLLNYQGKPRDVMTLAHELGHGVHQVLAARQGALMAPTPLTLAETASVFGEMLTFRRLLDGAETPRARKIMLAQKVEDMINTVVRQTAFYTFERDVHIERRQGELTSEKIGEIWMKVQGESLGPAIHLGAGYETFWTYIPHFIHSPFYVYAYAFGDCLVNSLYAVYENAADGFADRYLEMLSAGGTKHHAELLAPFGLDARDPAFWQTGLSLIDRMISELESMEG	soluble
MGSDKIHHHHHHMAYRSAPLYEDVIWRTHLQPQDPTLAQAVRATIAKHREHLLEFIRLDEPAPLNAMTLAQWSSPNVLSSLLAVYSDHIYRNQPMMIRENKPLISLWAQWYIGLMVPPLMLALLTQEKALDVSPEHFHAEFHETGRVACFWVDVCEDKNATPHSPQHRMETLISQALVPVVQALEATGEINGKLIWSNTGYLINWYLTEMKQLLGEATVESLRHALFFEKTLTNGEDNPLWRTVVLRDGLLVRRTCCQRYRLPDVQQCGDCTLK	not soluble
MGSDKIHHHHHHMSTTMQVIELNGPNRLSISQRQVPETPVDGVLLKTSAVSICSTDISHYHGNLLAEDYPVILGHEYSGIVVDVGPECPSSLQGQRLAYFGQTDFGGMAEYRALRPLFAGDLRSSPFKTGRFFKDDERAAAITLPDEISDSDAPLIEPITAVLRSILTHPPAVGNRVLVLGGGPCGAIAGAILQTLYATKSVAVLERNQARQEIARSQYANFVFGSAEELRESDDDAFDYVFDALPPLVNIEADSCPRRAAMRAAKPGSKYVLYGASQTLQQFDTWLLLAKGITLASAAFDVDHFPMYKTAFVMKTAKELLLRRIIDPGWMMTNHMSFWRPQEVIQFFAEYYTTPHLKTVIHFDQ	not soluble
